From paper PMC3229523, “Identification of Lactoferricin B Intracellular Targets Using an Escherichia coli Proteome Chip” (PLoS ONE, 2011)
Ends that are not written are not given here. * marks the point of attachment. Biotin = O=C1N[C@H]2[C@H](CS[C@H]2CCCCC(=O)*)N1

Tests used:
Assay in all cases: peptide or protein array; E. coli proteome chip: purified His-tagged proteins printed in duplicate on Fullmoon slides, blocked with 1% BSA; 10 nM N-terminal biotinylated LfcinB with 1% BSA, room temperature, 1 h; detected with DyLight 649-labeled streptavidin, ratio to DyLight 549-labeled anti-His antibody; ProCAT normalisation, local cut-off; triplicate chips
Conditions in all cases: both partners purified
GidB = target: T1, GidB (E. coli K-12, UniProt P0A6U5 1-207)
T1 construct: GidB, E. coli K-12
T1 sequence (looked up): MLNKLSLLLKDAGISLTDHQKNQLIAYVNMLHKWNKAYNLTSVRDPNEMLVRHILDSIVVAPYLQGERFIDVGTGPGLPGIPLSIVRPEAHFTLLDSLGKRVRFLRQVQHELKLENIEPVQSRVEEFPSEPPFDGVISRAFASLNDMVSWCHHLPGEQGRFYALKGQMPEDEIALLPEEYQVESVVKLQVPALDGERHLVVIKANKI

CadA = target: T2, CadA (E. coli K-12, UniProt P0A9H3 1-715)
T2 construct: CadA, E. coli K-12
T2 sequence (looked up): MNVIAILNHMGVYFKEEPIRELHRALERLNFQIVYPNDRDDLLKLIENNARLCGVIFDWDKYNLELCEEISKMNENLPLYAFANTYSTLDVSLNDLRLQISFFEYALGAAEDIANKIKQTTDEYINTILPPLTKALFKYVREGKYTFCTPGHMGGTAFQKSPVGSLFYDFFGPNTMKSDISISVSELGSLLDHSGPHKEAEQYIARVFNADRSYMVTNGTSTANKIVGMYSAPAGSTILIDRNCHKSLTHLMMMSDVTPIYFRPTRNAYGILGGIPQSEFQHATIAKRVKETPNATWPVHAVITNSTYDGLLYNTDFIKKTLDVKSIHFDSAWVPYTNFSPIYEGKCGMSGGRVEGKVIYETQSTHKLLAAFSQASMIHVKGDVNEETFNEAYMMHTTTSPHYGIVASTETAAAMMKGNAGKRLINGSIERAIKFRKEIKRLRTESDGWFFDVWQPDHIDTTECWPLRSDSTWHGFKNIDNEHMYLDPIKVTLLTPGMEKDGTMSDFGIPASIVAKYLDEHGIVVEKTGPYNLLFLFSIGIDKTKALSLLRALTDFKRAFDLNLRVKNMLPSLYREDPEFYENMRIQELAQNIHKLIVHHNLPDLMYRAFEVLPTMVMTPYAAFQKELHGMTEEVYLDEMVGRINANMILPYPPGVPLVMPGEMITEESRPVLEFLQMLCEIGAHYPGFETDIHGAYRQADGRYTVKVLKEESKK

YefE = target: T3, YefE (E. coli K-12, UniProt P37747 1-367)
T3 construct: YefE, E. coli K-12
T3 sequence (looked up): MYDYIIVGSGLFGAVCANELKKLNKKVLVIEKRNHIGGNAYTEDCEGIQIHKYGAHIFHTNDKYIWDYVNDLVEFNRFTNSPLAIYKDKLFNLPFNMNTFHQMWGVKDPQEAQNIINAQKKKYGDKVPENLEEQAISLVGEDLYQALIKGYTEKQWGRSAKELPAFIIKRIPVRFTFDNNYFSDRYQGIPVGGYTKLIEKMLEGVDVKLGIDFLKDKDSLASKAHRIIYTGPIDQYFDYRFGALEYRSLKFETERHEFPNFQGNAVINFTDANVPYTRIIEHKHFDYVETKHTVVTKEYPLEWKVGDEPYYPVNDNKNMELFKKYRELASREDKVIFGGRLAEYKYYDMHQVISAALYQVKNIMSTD

DinG = target: T4, DinG (E. coli K-12, UniProt P27296 1-716)
T4 construct: DinG, E. coli K-12
T4 sequence (looked up): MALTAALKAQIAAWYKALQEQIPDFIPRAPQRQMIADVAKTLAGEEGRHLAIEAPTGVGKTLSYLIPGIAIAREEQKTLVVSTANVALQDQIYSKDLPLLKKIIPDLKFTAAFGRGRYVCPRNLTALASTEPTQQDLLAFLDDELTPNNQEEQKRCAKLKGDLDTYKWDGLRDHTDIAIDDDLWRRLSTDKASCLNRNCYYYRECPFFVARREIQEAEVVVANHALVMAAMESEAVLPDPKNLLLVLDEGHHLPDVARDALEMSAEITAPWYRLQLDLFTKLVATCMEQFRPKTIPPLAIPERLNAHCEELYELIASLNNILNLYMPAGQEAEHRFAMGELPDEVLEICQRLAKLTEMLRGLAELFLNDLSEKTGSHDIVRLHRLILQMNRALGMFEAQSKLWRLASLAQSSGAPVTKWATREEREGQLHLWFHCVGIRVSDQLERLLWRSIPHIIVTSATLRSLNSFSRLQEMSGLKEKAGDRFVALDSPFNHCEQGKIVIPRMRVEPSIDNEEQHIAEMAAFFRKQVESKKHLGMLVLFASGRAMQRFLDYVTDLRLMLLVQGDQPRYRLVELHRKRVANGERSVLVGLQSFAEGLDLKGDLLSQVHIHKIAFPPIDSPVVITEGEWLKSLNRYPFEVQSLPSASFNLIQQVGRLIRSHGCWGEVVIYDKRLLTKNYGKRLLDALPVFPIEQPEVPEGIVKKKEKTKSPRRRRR

Measured: binding result

B1: N-terminal biotinylated Lactoferricin B (peptide, UniProt P24627 36-60, looked up)
peptide: Biotin-FKCRRWQWRMKKLGAPSITCVRRAF
modifications: ends and bridges not checked
notes: lactoferricin B (LfcinB), cationic antimicrobial peptide of 25 amino acids; also called biotinylated LfcinB; biotin-labeled LfcinB; source: bought: Kelowna Inc
binds: all assays above
